The target of the test is maize VIVIPAROUS-1 (VP1) B3-domain transcription factor (maize) (UniProt P26307). The test is described as follows: cell-based or functional assay.
UniProt P26307, sequence (P26307 whole entry): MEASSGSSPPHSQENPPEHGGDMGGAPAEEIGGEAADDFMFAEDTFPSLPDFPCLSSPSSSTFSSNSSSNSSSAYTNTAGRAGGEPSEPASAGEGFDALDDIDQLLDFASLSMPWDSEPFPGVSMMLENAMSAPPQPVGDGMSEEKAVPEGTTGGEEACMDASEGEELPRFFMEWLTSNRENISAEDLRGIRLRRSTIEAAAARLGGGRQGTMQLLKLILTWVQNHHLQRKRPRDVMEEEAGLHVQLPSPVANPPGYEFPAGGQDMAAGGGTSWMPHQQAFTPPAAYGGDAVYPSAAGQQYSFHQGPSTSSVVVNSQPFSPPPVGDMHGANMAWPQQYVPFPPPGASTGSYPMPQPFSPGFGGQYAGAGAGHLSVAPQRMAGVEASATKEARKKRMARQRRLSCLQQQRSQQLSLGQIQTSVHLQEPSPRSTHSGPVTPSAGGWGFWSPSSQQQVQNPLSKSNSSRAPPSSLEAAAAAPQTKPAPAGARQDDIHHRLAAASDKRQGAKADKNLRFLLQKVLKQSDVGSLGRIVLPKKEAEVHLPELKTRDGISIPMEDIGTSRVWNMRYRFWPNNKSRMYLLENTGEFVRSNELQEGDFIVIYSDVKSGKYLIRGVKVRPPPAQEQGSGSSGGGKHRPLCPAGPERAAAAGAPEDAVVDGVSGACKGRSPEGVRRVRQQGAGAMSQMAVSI

“ABF3 (ABA-Response Element-Binding Factor 3) (from UniProt Q9M7Q3 1-454)”: the ABA-inducible Em-GUS reporter gene expression, transiently co-transformed rice protoplasts; synergy relative to that of ABI5 with VP1 came out at 2 fold.
